Test results as given in patent US20050048579A1, “Tertiary structures of ICAM-1/LFA-1 modulators” (priority 2003, published 2005).
Bridge positions count the residues as written; N and C are the ends. Ends that are not written are not given here. Peptide text beside a SMILES is read from it.

Target: T1, LFA-1 binding to ICAM-1 (JY cells) (Homo sapiens, UniProt P05362)
T1 construct: endogenous in cells; host or cells: JY cells
Assay: LFA-1:ICAM-1 dependent cell aggregation assay, slightly modified (360 minute incubations)
Type: cell-based
Settings: cell aggregation
Procedure: (§1) JY cells were maintained in RPMI-1640 medium supplemented with 10% fetal bovine serum at 37° C. in an atmosphere containing 5% CO2 in air. The aggregation of JY cells, which is dependent on LFA-1 binding to ICAM-1, was determined as previously reported (Shannon, J. P., Silva, M. V., Brown, D. C. & Larson, R. S. (2001) Novel cyclic peptide inhibits intercellular adhesion molecule-1-mediated cell aggregation. J. Pept. Res. 58, 140-150; Larson, R. S., Brown, D. C. & Sklar, L. A.(1997) Retinoic acid induces aggregation of the acute promyelocytic leukemia cell lineNB-4 by utilization of LFA-1 and ICAM-2.Blood 90, 2747-2756; Rothlein, R. & Springer, T. A. (1986) The requirement for lymphocyte function associated antigen 1 in homotypic leukocyte adhesion stimulated by phorbol ester. J. Exp.Med. 163, 1132-1149). Briefly, JY cells were washed twice with serum-free media and resuspended at a concentration of 4×10^5 cells/mL. Cells were then preincubated with various concentrations of peptides or mAb for 15 minutes at room temperature. A 50 μL aliquot of cells was seeded in each well of a 96-well flat-bottomed microtiterplate followed by the addition of either peptide or mAb to a final volume of 100 μL. Cells were allowed to aggregate at 37° C. in humidified air containing 5% CO2. Within each well, the number of aggregates and the total number of free (single) cells were counted by inverted phase microscopy. Percent aggregation, P, was then determined as follows: P=100(1−Ff/Fi), where Ff (Fi) is the final (initial) number of free cells. Percent aggregation was then used to calculate percent inhibition, I, as follows: […], where Pi (Pc) is the percent aggregation with modulatory peptide (control). The constants for 50% inhibition (IC50) were derived from a linear fit to the percent inhibition at four concentrations (50 μm, 100 μm, 500 μm, and 1 mm) of inhibitory peptide. Each experiment was performed at least three times, with each condition performed in duplicate. The data are reported as the mean values and the SDs of each IC50.
The same general procedure was used as described in Example 1.
The functional activity of each IP02 derivative was measured in a slightly-modified version of the previously described cell aggregation assay (Shannon, J. P., Silva, M. V., Brown, D. C., & Larson, R. S. (2001). Novel cyclic peptide inhibits intercellular adhesion molecule-1-mediated cell aggregation. J. Pept. Res. 58, 140-150; Merchant, S. H., Gurule, D. M., Larson, R. S. (2003). Amelioration of ischemia-reperfusion injury with cyclic peptide blockade of ICAM-1. Am. J. Physiol. Heart Circ. 284,H1260-1268; Larson, R. S., Brown, D. C., and Sklar, L. A. (1997). Retinoic acid induces aggregation of the acute promyelocytic leukemia cell line NB-4 by utilization of LFA-1 and ICAM-2. Blood 90, 2747-2756; Rothlein, R. and Springer, T. A. (1986). The requirement for lymphocyte function-associated antigen 1 in homotypic leukocyte adhesion stimulated by phorbol ester. J. Exp. Med. 163, 1132-1149). Longer incubations (360 minutes) were used here instead of the earlier 120 minute incubations in order to increase the observed differences among peptide antagonists. Of all the amino acid substitutions, replacement of R6 with K, to produce IP02-K6, improved the IC50 the most. […] Alternatively, replacement of L2 or L3 with V (IP02-V2 and IP02-V3) or A8 with L (IP02-L8) abrogated activity, with IC50s exceeding 1,000 μM.

T1 sequence (P05362 28-532): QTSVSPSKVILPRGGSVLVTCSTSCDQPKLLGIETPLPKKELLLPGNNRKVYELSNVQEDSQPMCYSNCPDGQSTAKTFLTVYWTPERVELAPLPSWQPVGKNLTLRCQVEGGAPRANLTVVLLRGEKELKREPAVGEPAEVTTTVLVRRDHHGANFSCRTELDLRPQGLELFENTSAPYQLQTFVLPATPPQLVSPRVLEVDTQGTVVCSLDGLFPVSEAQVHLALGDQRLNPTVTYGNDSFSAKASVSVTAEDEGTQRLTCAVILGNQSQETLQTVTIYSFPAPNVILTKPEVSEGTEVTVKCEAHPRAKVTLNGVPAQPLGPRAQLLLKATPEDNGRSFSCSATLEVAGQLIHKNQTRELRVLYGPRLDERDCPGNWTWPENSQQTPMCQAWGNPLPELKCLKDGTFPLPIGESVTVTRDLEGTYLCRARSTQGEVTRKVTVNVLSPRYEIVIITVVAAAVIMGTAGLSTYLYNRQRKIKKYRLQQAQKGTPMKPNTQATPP

| IC50 [µM] | Molecule |
| --- | --- |
| 105 to 190 | CC[C@H](C)[C@@H]1NC(=O)[C@@H](N)CSSC[C@@H](C(=O)O)NC(=O)[C@H](C)NC(=O)[C@H](CO)NC(=O)[C@H](CCCNC(=N)N)NC(=O)[C@H](CCSC)NC(=O)[C@H](CCCNC(=N)N)NC(=O)[C@H](CC(C)C)NC1=O [IP02-12, CILRMRSAC] (H-CILRMRSAC-OH; disulfide 1-9; N-terminus and C-terminus assumed) |
| 105 to 190 | CSCC[C@@H]1NC(=O)[C@H](CCCCN)NC(=O)[C@H](CC(C)C)NC(=O)[C@H](CC(C)C)NC(=O)[C@@H](N)CSSC[C@@H](C(=O)O)NC(=O)[C@H](C)NC(=O)[C@H](CO)NC(=O)[C@H](CCCNC(=N)N)NC1=O [IP02-K4, CLLKMRSAC] (H-CLLKMRSAC-OH; disulfide 1-9; N-terminus and C-terminus assumed) |
| > 1000 | CSCC[C@@H]1NC(=O)[C@H](CCCNC(=N)N)NC(=O)[C@H](CC(C)C)NC(=O)[C@H](CC(C)C)NC(=O)[C@@H](N)CSSC[C@@H](C(=O)O)NC(=O)[C@H](CC(C)C)NC(=O)[C@H](CO)NC(=O)[C@H](CCCNC(=N)N)NC1=O [IP02-L8, CLLRMRSLC] (H-CLLRMRSLC-OH; disulfide 1-9; N-terminus and C-terminus assumed) |
| > 1000 | CSCC[C@@H]1NC(=O)[C@H](CCCNC(=N)N)NC(=O)[C@H](CC(C)C)NC(=O)[C@H](C(C)C)NC(=O)[C@@H](N)CSSC[C@@H](C(=O)O)NC(=O)[C@H](C)NC(=O)[C@H](CO)NC(=O)[C@H](CCCNC(=N)N)NC1=O [IP02-V2] (H-CVLRMRSAC-OH; disulfide 1-9; N-terminus and C-terminus assumed) |
| > 1000 | CSCC[C@@H]1NC(=O)[C@H](CCCNC(=N)N)NC(=O)[C@H](C(C)C)NC(=O)[C@H](CC(C)C)NC(=O)[C@@H](N)CSSC[C@@H](C(=O)O)NC(=O)[C@H](C)NC(=O)[C@H](CO)NC(=O)[C@H](CCCNC(=N)N)NC1=O [IP02-V3] (H-CLVRMRSAC-OH; disulfide 1-9; N-terminus and C-terminus assumed) |
| 700 | CSCC[C@@H]1NC(=O)[C@H](CCCNC(=N)N)NC(=O)[C@H](CC(C)C)NC(=O)[C@H](CC(C)C)NC(=O)[C@@H](N)CSSC[C@@H](C(=O)O)NC(=O)[C@H](C(C)C)NC(=O)[C@H](CO)NC(=O)[C@H](CCCNC(=N)N)NC1=O [IP02-V8] (H-CLLRMRSVC-OH; disulfide 1-9; N-terminus and C-terminus assumed) |

Same assay, conditions: cell aggregation, unit μm [sic]

| IC50 [µM] | Molecule |
| --- | --- |
| ~700 | CC[C@H](C)[C@@H]1NC(=O)[C@H](CC(C)C)NC(=O)[C@@H](N)CSSC[C@@H](C(=O)O)NC(=O)[C@H](C)NC(=O)[C@H](CO)NC(=O)[C@H](CCCNC(=N)N)NC(=O)[C@H](CCSC)NC(=O)[C@H](CCCNC(=N)N)NC1=O [IP02-13, CLIRMRSAC] (H-CLIRMRSAC-OH; disulfide 1-9; N-terminus and C-terminus assumed) |
| ~700 | CSCC[C@@H]1NC(=O)[C@H](CCCNC(=N)N)NC(=O)[C@H](CC(C)C)NC(=O)[C@H](CC(C)C)NC(=O)[C@@H](N)CSSC[C@@H](C(=O)O)NC(=O)[C@H](C(C)C)NC(=O)[C@H](CO)NC(=O)[C@H](CCCNC(=N)N)NC1=O [IP02-V8] (H-CLLRMRSVC-OH; disulfide 1-9; N-terminus and C-terminus assumed) |

Target: T2, Intercellular adhesion molecule-1 (ICAM-1) on JY cells (UniProt P05362 28-532, limits assumed)
Assay: cell-based or functional assay
Settings: not given

T2 sequence (P05362 28-532 limits assumed): as the sequence (P05362 28-532) above

| IC50, inhibition of JY cell aggregation, 360 minute incubation [µM] | fold improvement of activity over IP01 (JY cell aggregation) [fold] | fold improvement of inhibition over IP01 (JY cell aggregation IC50) [fold] | fold smaller IC50 than IP01 (JY cell aggregation, 360 minutes) [fold] | Molecule |
| --- | --- | --- | --- | --- |
| ~700 |  |  |  | CLLRMRSVC (disulfide 1-9) [IP02-V8] |
| 480 | 2 | 2.5 |  | CLLRMRSAC (disulfide 1-9) [IP02] |
| > 1000 |  |  |  | CLVRMRSAC (disulfide 1-9) [IP02-V3] |
| ~700 |  |  |  | CLIRMRSAC (disulfide 1-9) [IP02-I3] |
| > 1000 |  |  |  | CLLRMRSLC (disulfide 1-9) [IP02-L8] |
| 580 |  |  |  | CLLRMRSIC (disulfide 1-9) [IP01 (inhibitory peptide-01)] |
| 90 |  |  | ~6 | CLLRMKSAC (disulfide 1-9) [IP02-K6] |
| > 1000 |  |  |  | CVLRMRSAC (disulfide 1-9) [IP02-V2] |

Target: T2, Intercellular adhesion molecule-1 …
Assay: cell-based or functional assay
Settings: not given
Remark: another data set of the same source

| IC50, inhibition of JY cell aggregation at 2 hours [µM] | Molecule |
| --- | --- |
| > 1000 | CLLRMASIC (disulfide 1-9) [IP01-A6] |
| 210 | CLLRMRSAC (disulfide 1-9) [IP02] |
| > 1000 | CLARMRSIC (disulfide 1-9) [IP01-A3] |
| > 1000 | CLLRARSIC (disulfide 1-9) [IP01-A5] |
| 530 | CLLRMRSIC (disulfide 1-9) [IP01 (inhibitory peptide-01)] |
| > 1000 | CALRMRSIC (disulfide 1-9) [IP01-A2] |
| 740 | CLLRMRAIC (disulfide 1-9) [IP01-A7] |

Target: T1, LFA-1 binding to ICAM-1 (JY cells)
Assay: LFA-1:ICAM-1 dependent JY cell aggregation assay (2 hours)
Type: cell-based
Settings: not given
Procedure: Cysteine-constrained peptides, synthesized by Biopeptide (San Diego, Calif., USA), were isolated using high-performance liquid chromatography, and their correct mass was confirmed by mass spectrometry. The peptides were dissolved in 5% dimethylsulfoxide in phosphate-buffered saline (PBS) at concentrations of 10 mm and stored at −80° C. until use. The mAb directed against LFA-1 (TS1/18) was purified from a hybridoma line ([…], Manassas, Va.) as described previously (Oj, V. T. & Herzenberg, T. (1980) Immunoglobulin-producing hybrid celllines. In Selected Methods in Cellular Immunology (Mishell, B. B. & Shiigi, S. M.,eds), H. H. Freeman, New York; Larson, R. S., Brown, D. C. & Sklar, L. A.(1997) Retinoic acid induces aggregation of the acute promyelocytic leukemia cell lineNB-4 by utilization of LFA-1 and ICAM-2.Blood 90, 2747-2756; Rothlein, R. & Springer, T. A. (1986) The requirement for lymphocyte function associated antigen 1 in homotypic leukocyte adhesion stimulated by phorbol ester. J. Exp.Med. 163, 1132-1149).
as §1

| IC50 [µM] | Molecule |
| --- | --- |
| > 1000 | CC[C@H](C)[C@@H]1NC(=O)[C@H](CO)NC(=O)[C@H](CCCNC(=N)N)NC(=O)[C@H](CCSC)NC(=O)[C@H](CCCNC(=N)N)NC(=O)[C@H](CC(C)C)NC(=O)[C@H](C)NC(=O)[C@@H](N)CSSC[C@@H](C(=O)O)NC1=O [IP01-A2, CALRMRSIC] (H-CALRMRSIC-OH; disulfide 1-9; N-terminus and C-terminus assumed) |
| > 1000 | CC[C@H](C)[C@@H]1NC(=O)[C@H](CO)NC(=O)[C@H](CCCNC(=N)N)NC(=O)[C@H](CCSC)NC(=O)[C@H](CCCNC(=N)N)NC(=O)[C@H](C)NC(=O)[C@H](CC(C)C)NC(=O)[C@@H](N)CSSC[C@@H](C(=O)O)NC1=O [IP01-A3, CLARMRSIC] (H-CLARMRSIC-OH; disulfide 1-9; N-terminus and C-terminus assumed) |
| > 1000 | CC[C@H](C)[C@@H]1NC(=O)[C@H](CO)NC(=O)[C@H](CCCNC(=N)N)NC(=O)[C@H](C)NC(=O)[C@H](CCCNC(=N)N)NC(=O)[C@H](CC(C)C)NC(=O)[C@H](CC(C)C)NC(=O)[C@@H](N)CSSC[C@@H](C(=O)O)NC1=O [IP01-A5, CLLRARSIC] (H-CLLRARSIC-OH; disulfide 1-9; N-terminus and C-terminus assumed) |
